The values that follow come from the supplement of paper PMC12042874.

± gives the uncertainty stated by the source.

A short description of the series: amyloid nucleation score (Sup35N fusion, yeast selection) (log enrichment); library NNK2; higher = more nucleation; inactive = no reads after selection. The gist of the method: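 Nucleation score is defined as the DiMSum log enrichment of output over input reads, with centring on the mode score of non-aggregating sequences. A minimum of 100 input reads was required for each sequence. Reads came from Illumina sequencing of plasmid inserts from psi-negative yeast expressing Sup35N fused to peptides of 20 random codons, induced with 100 μM copper sulfate for 24 hours and grown 7 days at 30°C on medium lacking adenine and uracil.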
NIVVPRRL: the amyloid nucleation score is 2.53 ± 0.13. As for NLQSTMMLYYCFRVMMLLAW, the amyloid nucleation score is -0.762 ± 0.38. Next, FFGVSWRWARNFCYDMGQVY: -0.177 ± 1; IVGVTYFCGSNRIIMMNGVL: 5.956 ± 0.052. For the substance DNCFAAFSFRRGVAYVDL, the amyloid nucleation score is -0.52 ± 0.38. Next, SMFGRRVWLDCNQPAGGRFA: 0.118 ± 0.22; KVRKYSEFSLQSQCDPLGRG: 0.455 ± 0.5; RRFMYIFYLDYFFKPLLRLN: -0.369 ± 1.1. Turning to SYPYFMLRTTLNTLKTWFWM, the amyloid nucleation score was -0.403 ± 1. Next, DYSFGMSCLEDIFREHEILG: -0.879 ± 1.1. Next, GYSVH: -0.632 ± 1.1; HCNLPDWVHGIYMSKS: 0.127 ± 0.74; HYVVFVF: 6.37 ± 0.084. Then LLLTLCSDHMLNGNVVGHDW, with 4.05 ± 0.049; and CVKVNWVSV, with -0.81 ± 0.76. For the substance AFCLTLTGACLSMSDVARFT, the amyloid nucleation score amounted to 4.19 ± 0.098. Next, LIGGLVSPISRYEVGWQDAV: -0.213 ± 0.62. CNNQRYVNNGITRNGRNDAG had an amyloid nucleation score of -0.604 ± 0.76.

TLSLSYALLSCVSVIKCPLV: the amyloid nucleation score was -0.451 ± 0.79. Then LLEAQSISCYRRGVYLLGQL, with 3.32 ± 0.067. As to ALLDCMWCTCVCKVSSGVVH, the amyloid nucleation score entry was “inactive”. Then KISVWGYRFLDRH, with 0.072 ± 0.21; and SECCLVELINLTDGGMRGSA, with 0.5 ± 0.42; and RLCWLEGVIVYRIFGGKLGV, with -1.33 ± 0.44. In the case of KYNDGEFIVVIVGILAYAVV, the amyloid nucleation score was -0.238 ± 0.34.

Consider KGVLSGTWGGIRRIMTHVHD, for which the amyloid nucleation score turned out to be 0.004 ± 0.36. WINPFAQWMNSVQIFK: the amyloid nucleation score worked out at 0.466 ± 0.12.

YFHVVFL gave an amyloid nucleation score of 2.75 ± 0.094.

CVTQSR came in with an amyloid nucleation score of -0.086 ± 0.26. Then YSASKFTWPCIKTSKCGALC, with -1.09 ± 0.63; and QSVYMFRKNNDFPRGTAGSQ, with -0.883 ± 1.1. Then WLLNYYRGGVWLGLWTRKE, with -1.3 ± 0.48; and RLHRTILHVSRTGQFGAHQC, with 0.989 ± 0.35. Next, LPKREPGDKGTLLYYDQELS: 0.167 ± 0.53. In turn, IVAGVSSGQGIDQDSIVNKR yielded an amyloid nucleation score of 0.102 ± 1.1. Then LIIDQVIMNGINVPYTYLIY, with 4.15 ± 0.056. For MIQEVLWLVSS, the amyloid nucleation score stood at 0.043 ± 0.49. Then SHSVRTMFPGGVNPRNIRGY, with 0.548 ± 0.64; and IFGLCCFCGSYQRY, with 8.152 ± 0.033; and AFIRPIVSLVVLSQGV, with 0.827 ± 0.6. Next, NQLRVLMTFFWPGMLNTPAV: -0.089 ± 1.1. Then HSSCIVVEAFSQGVVHNLFV, with -0.567 ± 1.1; and RSSSSTMDMM, with 0.85 ± 0.74; and DSVSTVVFII, with 4.47 ± 0.045. As for NQGIKRRLFHNWLNRGRLLF, the amyloid nucleation score result is “inactive”. Next, DIFCLRPYKLPGYTFYYFVY: “inactive”; YAMCPCVYNLDSQGAC: 3.85 ± 0.12. On to GKDGTFRVVPRQEDRSAHWL, for which the amyloid nucleation score was -0.464 ± 1.1. The substance LKYVVTVHIMFMLSSWSQGC came in with an amyloid nucleation score of -0.814 ± 0.79.

Regarding CGILYSFDGRFVYWSSYGSS, the amyloid nucleation score was -0.353 ± 0.79. Next, RVMRLGTLEDNWGDHGLSSR: -0.583 ± 0.44; PWWLWVGSMYENYGFAPFWV: -0.969 ± 0.3. SIVKLGVYHDLPA had an amyloid nucleation score of 0.721 ± 0.66.

FNFGNDGYSFNIILWYQRYI gave an amyloid nucleation score of 6.61 ± 0.063. For HAKPDNLLFLTNGEPRTIIR, the amyloid nucleation score was -2.15 ± 1.1.

MSFYFNFIYYFYSYFTFEWF: the amyloid nucleation score entry was “inactive”. Then LVFHRVTWLTDNMQWKGTPG, with 3.2 ± 0.078.

RLTFSSIVTGGLQFKTLL had an amyloid nucleation score of 2.75 ± 0.1.

WAWGCWVHSESVAWSCMCKA came in with an amyloid nucleation score of 0.476 ± 0.28. Next, HGLTYIGIKCTYIKRVTWVR: 0.389 ± 0.57; IDRCGTLVTPDGINGRVTRV: 0.951 ± 0.55; WRVGVK: 0.312 ± 0.25. Then MAELLHKYGYKDAVRNIHPY, with 0.641 ± 0.62; and TEGYNMCDWCSSSLVKSVRM, with -0.223 ± 0.49. Next, NLILYPRHDNYQSS: “inactive”; MFILGAHGKFGSTTMGVLAC: -1.64 ± 0.62.

GSKNFPRPIPDYVWVFTGAI: the amyloid nucleation score came out at 0.032 ± 0.43.

Substance LRPDYLERYFWLWHSTDKLF registered an amyloid nucleation score of -1.14 ± 0.49. Then GWSYTEVYFMIASCYII, with 1.16 ± 0.29.

As for STNIRSLMLLFCNNIEQASV, the amyloid nucleation score is 7.816 ± 0.038. Regarding NYGGPMVNDAFVCTLAGPV, the amyloid nucleation score result was “inactive”. The substance MENGHCYFCQCTKSH registered an amyloid nucleation score of 2.85 ± 0.1. Regarding PDPLWGRPFYIWIMELGSRK, the amyloid nucleation score was found to be 2.32 ± 0.13. Then TVKCYNL, with 0.268 ± 0.46; and SSPSYSSSSHKRTL, with 2.14 ± 0.25. Then PSWHI, with -0.193 ± 0.47. Next, DINSQEVCSVTELGR: -0.247 ± 0.45; WRPKPKWFLGGYGWTGERRL: 0.418 ± 0.51. As for FLCMFMFESWYDHNAVAVSY, the amyloid nucleation score came out at 0.66 ± 0.57.

Turning to NLFLFVRGLGRGWSWWWEVR, the amyloid nucleation score was 0.415 ± 0.8. Then VNVNMPWTEERSKSEMSNTW, with 1.4 ± 0.37; and ILSCGRYWRTDTIVVTGNST, with 1.91 ± 0.35; and ENIISERAFS, with “inactive”. Then VLIVFNNPCFMGWALVDVVL, with 8.194 ± 0.053; and KQLRSSVSSSYYHGNTVCAE, with 0.794 ± 0.39; and KGNEY, with -0.757 ± 0.64. Then QSSNLMGL, with -0.338 ± 0.39; and DFVHVEIDPYQVGGGFQ, with 8.764 ± 0.046. In turn, SAVSPVSVADR gave an amyloid nucleation score of -0.656 ± 1.1. Turning to FGTILGSLVLVIWI, the amyloid nucleation score entry is “inactive”. Regarding VLDYSTHIEFGQRRVVGFAR, the amyloid nucleation score was -0.321 ± 1.

For GFKVF, the amyloid nucleation score was -0.937 ± 0.31. Next, LHAHYWCRVSKEPCCWCKMG: 1.02 ± 0.49.

With YLVDTSCRVGWTDVYFPVRV, the amyloid nucleation score entry is “inactive”.

Consider MNVYMGFTKVLSAVPRLLYG, for which the amyloid nucleation score is -0.408 ± 0.56. Next, LQLASNVHEHKQNGLSHRIN: 0.439 ± 0.5; CTEFSLTDCSSG: “inactive”. Then WTCAAFFEMDDRQGIVEIFI, with 0.644 ± 0.81; and VYVSYVAIFLPEPLVCDNVE, with 7.192 ± 0.04.

On to NARVL, for which the amyloid nucleation score is -0.853 ± 0.64. SSYMSRALSCGHSFGKVGAN showed an amyloid nucleation score of 0.697 ± 0.81. Then YLDGYSSFTSFEKAMARRCG, with 0.305 ± 0.74. The substance IIYLIGLTRARHWCRLRYEL returned an amyloid nucleation score of -0.063 ± 0.3.

SGFLDLPVYPVYNHNRTKMI yielded an amyloid nucleation score of 0.267 ± 0.57. Then KNKSFNMACPVLVYGGFLIR, with “inactive”; and AEDFVLAEEYI, with -0.285 ± 0.76; and TLSSFL, with -1.55 ± 0.41. Next, SFDVWAALNENLPHISYFDQ: -0.14 ± 1.1. Next, LCTIRFVNIFVCRMSKLNSH: -1.4 ± 0.62. For the substance AWANRMWWAR, the amyloid nucleation score is 4.23 ± 0.074. Next, GSVGGSGIAACGTSDGGTVR: 2.02 ± 0.27. Then SMYNSHHSELVNWLNDYIWL, with 2.47 ± 0.1; and IYDLSCAKARLYVASHSLTL, with 0.418 ± 0.31.

Take NFKCFTRRVNWESYITEVVR: the amyloid nucleation score stood at 3.19 ± 0.068. Next, RGTVVTGF: 1.3 ± 0.44.

Substance FHRRMFLCAVWLLRLTIVRQ came in with an amyloid nucleation score of 0.492 ± 0.39. NPALSSWAEGSTP had an amyloid nucleation score of 0.299 ± 0.61. Next, TSNSTQLEDLV: 0.309 ± 0.45. Next, RRVVWSWNCLLSDMPRSHVL: 1.51 ± 0.13; SCSYRFSRSDDNCKTRFIAF: -0.582 ± 1.1; KFVYSGGLFTMLRSC: -0.414 ± 0.61. Then FDMLVNGHVIYRNRKSSSYI, with 0.216 ± 0.62. AWRYWFHTLSLTLKNWTSVF: the amyloid nucleation score was found to be 5.14 ± 0.087. ADLWKLGLRAILELGPL came in with an amyloid nucleation score of -0.165 ± 1. Substance TLSHPWADLLVSETHMVYR had an amyloid nucleation score of -0.381 ± 1.1. Next, FDTLKLCSMWDLCCHITRVA: 5.904 ± 0.044; MCDIVHY: -0.446 ± 0.79; RLTYNKYLTWNCYVFLSHAL: -0.464 ± 1.1.

As for RGDHDCW, the amyloid nucleation score amounted to 0.77 ± 0.32.

Substance HFILAIFLYCSIWIFEFFSL registered an amyloid nucleation score of -1.81 ± 1. Then GFVGF, with 2.68 ± 0.17; and IFCWRVSCEQRVFYLIESGR, with -0.388 ± 0.24. Take LKCPALRSSSPNDLFVP: the amyloid nucleation score was 0.626 ± 0.65. Then FLITCQLESTLYQW, with -0.334 ± 0.64; and IPSCRVFICRGNNVFRVPIT, with -1.06 ± 1.1. Then VQYCFFCAHRDSFGFKHCF, with “inactive”; and NPVINT, with -0.271 ± 0.46. Substance DPNLPETVTGVIMFASVGGA showed an amyloid nucleation score of -0.13 ± 0.76. Then DTILWRSSHAEGTEAWHMGF, with 1.28 ± 0.38.
